Common to all, as to experiment: cell-based or functional assay
In assay [1] the target is human IL-28 receptor (IL-28 receptor alpha subunit with CRF2-4) on 293 HEK cells (human).
The target in assay [2] is T1, mouse IL-28 (zcyto24) (mouse) (UniProt Q4VK74).
T1 sequence: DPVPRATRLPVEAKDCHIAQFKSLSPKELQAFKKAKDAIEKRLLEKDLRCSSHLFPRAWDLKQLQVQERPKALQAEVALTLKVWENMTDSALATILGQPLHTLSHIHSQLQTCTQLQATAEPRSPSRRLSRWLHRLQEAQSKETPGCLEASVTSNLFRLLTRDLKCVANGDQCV

For assay [3], the target named is human IL-29 (human) (UniProt Q8IU54).
For assay [4], the target named is T2, human IL-28A (human) (UniProt Q8IZJ0).
T2 sequence: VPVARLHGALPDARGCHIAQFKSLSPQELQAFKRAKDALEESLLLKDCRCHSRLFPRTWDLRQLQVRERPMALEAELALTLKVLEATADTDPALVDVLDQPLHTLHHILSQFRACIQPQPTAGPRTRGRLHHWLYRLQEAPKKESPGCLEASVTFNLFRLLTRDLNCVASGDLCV

Numbering of substitutions follows the chain as printed.

Sequence of human IL-29 (human) (Q8IU54 20-200): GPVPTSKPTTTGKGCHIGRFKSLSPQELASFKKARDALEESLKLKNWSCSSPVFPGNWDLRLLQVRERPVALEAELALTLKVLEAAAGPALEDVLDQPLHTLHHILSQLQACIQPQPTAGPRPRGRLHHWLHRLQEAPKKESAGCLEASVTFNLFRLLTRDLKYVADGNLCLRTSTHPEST
Sequence of human IL-28 receptor (IL-28 receptor alpha subunit with CRF2-4) on 293 HEK cells (human) (Q8IU57 whole entry, chain 1 of 2): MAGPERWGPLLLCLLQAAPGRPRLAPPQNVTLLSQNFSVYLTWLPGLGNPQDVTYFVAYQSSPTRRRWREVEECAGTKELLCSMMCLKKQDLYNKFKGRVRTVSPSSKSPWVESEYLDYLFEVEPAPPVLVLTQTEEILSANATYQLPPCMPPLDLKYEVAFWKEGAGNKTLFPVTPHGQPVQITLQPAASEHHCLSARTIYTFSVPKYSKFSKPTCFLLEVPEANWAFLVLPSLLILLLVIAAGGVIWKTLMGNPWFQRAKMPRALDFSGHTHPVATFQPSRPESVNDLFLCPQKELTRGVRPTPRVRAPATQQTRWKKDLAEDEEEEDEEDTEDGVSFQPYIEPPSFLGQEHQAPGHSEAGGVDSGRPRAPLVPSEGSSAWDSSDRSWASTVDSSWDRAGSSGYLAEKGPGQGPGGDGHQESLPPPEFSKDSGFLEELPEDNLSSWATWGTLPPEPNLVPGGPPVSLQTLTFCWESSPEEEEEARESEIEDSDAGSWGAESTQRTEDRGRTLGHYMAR
Sequence of human IL-28 receptor (IL-28 receptor alpha subunit with CRF2-4) on 293 HEK cells (human) (Q08334 whole entry, chain 2 of 2, further chain): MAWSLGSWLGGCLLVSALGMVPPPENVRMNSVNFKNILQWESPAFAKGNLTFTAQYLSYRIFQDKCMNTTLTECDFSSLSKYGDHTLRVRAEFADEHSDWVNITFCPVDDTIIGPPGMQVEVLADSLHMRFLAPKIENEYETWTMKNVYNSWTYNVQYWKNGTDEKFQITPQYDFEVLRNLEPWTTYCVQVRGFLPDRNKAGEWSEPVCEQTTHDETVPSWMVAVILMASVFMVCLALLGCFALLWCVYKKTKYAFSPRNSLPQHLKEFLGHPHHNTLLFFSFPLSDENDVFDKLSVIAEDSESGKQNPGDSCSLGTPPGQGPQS

Take “huIL10 (from UniProt P22301 19-178) (ligand)”: the ISRE-luciferase signaling, fold induction over medium alone; HuIL10 at 100 ng/ml; 293 cells transfected with ISRE-Luc. and IL-28R (fold induction) in assay [1] came to 0.5.

On to “human CRF2-4-Fc homodimer soluble receptor (Fc fusion)”, for which the Percent Inhibition of Ligand-induced ISRE Signaling by Soluble Receptors; 10 ng/ml ligand, 10 micrograms/ml soluble receptor; 293 HEK cells overexpressing zcytor19 in assay [2] was 82%; in assay [3] it was 79%; in assay [4], 80%.

With “human zcytor19-Fc/human CRF2-4-Fc heterodimer soluble receptor (Fc fusion)”, the Percent Inhibition of Ligand-induced ISRE Signaling by Soluble Receptors; 10 ng/ml ligand, 10 micrograms/ml soluble receptor; 293 HEK cells overexpressing zcytor19 in assay [2] worked out at 47%; in assay [3], 16%; in assay [4], 16%.

“zcyto10 (from UniProt Q9NYY1 25-176) (ligand)” came in with an ISRE-luciferase signaling, fold induction over medium alone; Zcyto10 at 125 ng/ml; 293 cells transfected with ISRE-Luc. and IL-28R (fold induction) in assay [1] of 1.

B1: human zcytor19-Fc homodimer soluble receptor (Fc fusion, not shown: a dimerising Fc or GST)
chain: RPRLAPPQNVTLLSQNFSVYLTWLPGLGNPQDVTYFVAYQSSPTRRRWREVEECAGTKELLCSMMCLKKQDLYNKFKGRVRTVSPSSKSPWVESEYLDYLFEVEPAPPVLVLTQTEEILSANATYQLPPCMPPLDLKYEVAFWKEGAGNKTLFPVTPHGQPVQITLQPAASEHHCLSARTIYTFSVPKYSKFSKPTCFLLEVPEANWA
With B1, the Percent Inhibition of Ligand-induced ISRE Signaling by Soluble Receptors; 10 ng/ml ligand, 10 micrograms/ml soluble receptor; 293 HEK cells overexpressing zcytor19 in assay [2] was found to be 90%; in assay [3], 45%; in assay [4] it was 92%.

B2: murine zcytor19-Ig homodimer soluble receptor (Fc fusion, mouse, UniProt Q8CGK5 21-227, looked up, not shown: a dimerising Fc or GST)
chain: RPRLAPPRNVTLFSQNFTVYLTWLPGLGSPPNVTYFVTYQSYIKTGWRPVEHCAGIKALVCPLMCLKKLNLYSKFKGRVQAASAHGRSPRVESRYLEYLFDVELAPPTLVLTQMEKILRVNATYQLPPCMPSLELKYQVEFWKEGLGSKTLFPDTPYGQPVQIPLQQGASRRHCLSARTVYTLIDIKYSQFSEPSCIFLEAPGDKRA
B2: the values for the Percent Inhibition of Ligand-induced ISRE Signaling by Soluble Receptors; 10 ng/ml ligand, 10 micrograms/ml soluble receptor; 293 HEK cells overexpressing zcytor19 in assay [2], in assay [3] and in assay [4] were 89%, 103% and 91%, respectively.

B3: human IL-28B (ligand)
chain: T2 sequence with H7R, R49K, H51R, M71V, V95G, F112L, Y135H
The molecule B3 registered an ISRE-luciferase signaling, fold induction over medium alone; IL-28B at 125 ng/ml; 293 cells transfected with ISRE-Luc. and IL-28R (fold induction) in assay [1] of 104.

The values above are taken from US20050037012A1.
